Where two headings read alike, the source gives them in different places.
Assays:
Assay type in all cases: cell-based
S. suis 10 (ST2) = test: ΔPlySs1 OD600 lysis, 1 hr
Description: (§1) Given the above experiments, the following optimal buffering conditions were employed for all further in vitro experiments with ΔPlySs1: 20 mM phosphate buffer, pH=7.8, 2 mM EDTA. A range of lysin concentrations, from 6.5-130 μg/ml, were introduced to live S. suis cells in this buffer. Three strains were considered particularly relevant: 7711, the serotype 7 strain that encodes PlySs1; 5735, the serotype 2 reference strain; and 7997, a highly virulent serotype 9 strain. In terms of bacterial viability, only the highest PlySs1-concentration (130 μg/ml) led to a >90% decrease in CFUs for 7711, S735, and 7997 after 1 hr treatment (TABLE 2). The lysin was also tested against actively-dividing cells in broth culture (strain 7711) (FIG. 20).
(§2) ΔPlySs1 was further tested against a panel of 19 other S. suis strains of diverse serotypes, as well as other species of Gram-positive bacteria. The same lysin concentrations were used as above. For each dosage, the observed lysis values after 1 hr are listed in TABLE 3 and TABLE 4, and the information is summarized graphically in FIG. 21.

S. suis 6112 (ST1) = test: ΔPlySs1 OD600 lysis, 1 hr
Description: as §1, §2

S. suis 6388 (ST1) = test: ΔPlySs1 OD600 lysis, 1 hr
Description: as §1, §2

S. suis 7197 (ST7) = test: ΔPlySs1 OD600 lysis, 1 hr
Description: as §1, §2

S. suis 8076 (ST9) = test: ΔPlySs1 OD600 lysis, 1 hr
Description: as §1, §2

S. suis ST10 = test: ΔPlySs1 OD600 lysis, 1 hr
Description: as §1, §2

S. suis ST11 = test: ΔPlySs1 OD600 lysis, 1 hr
Description: as §1, §2

S. suis ST14 = test: ΔPlySs1 OD600 lysis, 1 hr
Description: as §1, §2

S. suis ST1 = test: ΔPlySs1 OD600 lysis, 1 hr
Description: as §1, §2

S. suis ST4 = test: ΔPlySs1 OD600 lysis, 1 hr
Description: as §1, §2

S. suis ST5 = test: ΔPlySs1 OD600 lysis, 1 hr
Description: as §1, §2

S. suis ST6 = test: ΔPlySs1 OD600 lysis, 1 hr
Description: as §1, §2

S. suis ST7 = test: ΔPlySs1 OD600 lysis, 1 hr
Description: as §1, §2

S. suis ST9 = test: ΔPlySs1 OD600 lysis, 1 hr
Description: as §1, §2

S. oralis 35037 = test: ΔPlySs1 OD600 lysis, 1 hr
S. agalactiae type II = test: ΔPlySs1 OD600 lysis, 1 hr
S. dysgalactiae GGS = test: ΔPlySs1 OD600 lysis, 1 hr
S. sanguinis 10556 = test: ΔPlySs1 OD600 lysis, 1 hr
S. sobrinus 6715 = test: ΔPlySs1 OD600 lysis, 1 hr
E. faecalis V583 = test: ΔPlySs1 OD600 lysis, 1 hr
B. anthracis ΔSterne = system: B. anthracis ΔSterne

B1: ΔPlySs1: truncated PlySs1 lysin with N-terminal enzymatic and central binding domains, N-terminal 254 amino acids, SEQ ID NO:2 (protein, listed as Streptococcus suis)
chain: MTINLETSIRWMSDRVGKVSYSMDYRNGPNSYDCSSAVYYALMAGGAISAGWAVNTEYMHDWLIRNGYVLVAENKPFNAQRHDVCILGKRGYSSGAGGHVVIFVDNVNVIHCNYARNGISIDNYNQVHRGMYYYLYRPANQPSISNKSLDQLVKETLAGVHGNGDTRKASLGSQYEAVMAVINGKASASEKSDEELAREVLAGKHGAGEDRKRSLGPRYEPVQAKVNELLKAKEKPSETAKNEPQTVQFKEDGDL
1-hour treated/untreated OD600-ratio (S. suis 10 (ST2); 6.5 μg/ml): 0.29
1-hour treated/untreated OD600-ratio (S. suis 10 (ST2); 13 μg/ml): 0.18
1-hour treated/untreated OD600-ratio (S. suis 10 (ST2); 30 μg/ml): 0.10
1-hour treated/untreated OD600-ratio (S. suis 10 (ST2); 65 μg/ml): 0.05
1-hour treated/untreated OD600-ratio (S. suis 10 (ST2); 130 μg/ml): 0.02
1-hour treated/untreated OD600-ratio (S. suis 6112 (ST1); 6.5 μg/ml): 0.14
1-hour treated/untreated OD600-ratio (S. suis 6112 (ST1); 13 μg/ml): 0.11
1-hour treated/untreated OD600-ratio (S. suis 6112 (ST1); 30 μg/ml): 0.06
1-hour treated/untreated OD600-ratio (S. suis 6112 (ST1); 65 μg/ml): 0.02
1-hour treated/untreated OD600-ratio (S. suis 6112 (ST1); 130 μg/ml): 0.01
1-hour treated/untreated OD600-ratio (S. suis 6388 (ST1); 6.5 μg/ml): 0.15
1-hour treated/untreated OD600-ratio (S. suis 6388 (ST1); 13 μg/ml): 0.13
1-hour treated/untreated OD600-ratio (S. suis 6388 (ST1); 30 μg/ml): 0.06
1-hour treated/untreated OD600-ratio (S. suis 6388 (ST1); 65 μg/ml): 0.03
1-hour treated/untreated OD600-ratio (S. suis 6388 (ST1); 130 μg/ml): 0.02
1-hour treated/untreated OD600-ratio (S. suis 7197 (ST7); 6.5 μg/ml): 0.64
1-hour treated/untreated OD600-ratio (S. suis 7197 (ST7); 13 μg/ml): 0.49
1-hour treated/untreated OD600-ratio (S. suis 7197 (ST7); 30 μg/ml): 0.39
1-hour treated/untreated OD600-ratio (S. suis 7197 (ST7); 65 μg/ml): 0.16
1-hour treated/untreated OD600-ratio (S. suis 7197 (ST7); 130 μg/ml): 0.07
1-hour treated/untreated OD600-ratio (S. suis 8076 (ST9); 6.5 μg/ml): 0.52
1-hour treated/untreated OD600-ratio (S. suis 8076 (ST9); 13 μg/ml): 0.40
1-hour treated/untreated OD600-ratio (S. suis 8076 (ST9); 30 μg/ml): 0.21
1-hour treated/untreated OD600-ratio (S. suis 8076 (ST9); 65 μg/ml): 0.14
1-hour treated/untreated OD600-ratio (S. suis 8076 (ST9); 130 μg/ml): 0.04
1-hour treated/untreated OD600-ratio (S. suis ST10; 6.5 μg/ml): 0.85
1-hour treated/untreated OD600-ratio (S. suis ST10; 13 μg/ml): 0.72
1-hour treated/untreated OD600-ratio (S. suis ST10; 30 μg/ml): 0.55
1-hour treated/untreated OD600-ratio (S. suis ST10; 65 μg/ml): 0.44
1-hour treated/untreated OD600-ratio (S. suis ST10; 130 μg/ml): 0.28
1-hour treated/untreated OD600-ratio (S. suis ST11; 6.5 μg/ml): 0.64
1-hour treated/untreated OD600-ratio (S. suis ST11; 13 μg/ml): 0.47
1-hour treated/untreated OD600-ratio (S. suis ST11; 30 μg/ml): 0.32
1-hour treated/untreated OD600-ratio (S. suis ST11; 65 μg/ml): 0.19
1-hour treated/untreated OD600-ratio (S. suis ST11; 130 μg/ml): 0.07
1-hour treated/untreated OD600-ratio (S. suis ST14; 6.5 μg/ml): 0.79
1-hour treated/untreated OD600-ratio (S. suis ST14; 13 μg/ml): 0.57
1-hour treated/untreated OD600-ratio (S. suis ST14; 30 μg/ml): 0.33
1-hour treated/untreated OD600-ratio (S. suis ST14; 65 μg/ml): 0.15
1-hour treated/untreated OD600-ratio (S. suis ST14; 130 μg/ml): 0.06
1-hour treated/untreated OD600-ratio (S. suis ST1; 6.5 μg/ml): 0.80
1-hour treated/untreated OD600-ratio (S. suis ST1; 13 μg/ml): 0.34
1-hour treated/untreated OD600-ratio (S. suis ST1; 30 μg/ml): 0.36
1-hour treated/untreated OD600-ratio (S. suis ST1; 65 μg/ml): 0.19
1-hour treated/untreated OD600-ratio (S. suis ST1; 130 μg/ml): 0.06
1-hour treated/untreated OD600-ratio (S. suis ST4; 6.5 μg/ml): 0.63
1-hour treated/untreated OD600-ratio (S. suis ST4; 13 μg/ml): 0.47
1-hour treated/untreated OD600-ratio (S. suis ST4; 30 μg/ml): 0.32
1-hour treated/untreated OD600-ratio (S. suis ST4; 65 μg/ml): 0.22
1-hour treated/untreated OD600-ratio (S. suis ST4; 130 μg/ml): 0.12
1-hour treated/untreated OD600-ratio (S. suis ST5; 6.5 μg/ml): 0.78
1-hour treated/untreated OD600-ratio (S. suis ST5; 13 μg/ml): 0.59
1-hour treated/untreated OD600-ratio (S. suis ST5; 30 μg/ml): 0.39
1-hour treated/untreated OD600-ratio (S. suis ST5; 65 μg/ml): 0.22
1-hour treated/untreated OD600-ratio (S. suis ST5; 130 μg/ml): 0.10
1-hour treated/untreated OD600-ratio (S. suis ST6; 6.5 μg/ml): 0.76
1-hour treated/untreated OD600-ratio (S. suis ST6; 13 μg/ml): 0.56
1-hour treated/untreated OD600-ratio (S. suis ST6; 30 μg/ml): 0.40
1-hour treated/untreated OD600-ratio (S. suis ST6; 65 μg/ml): 0.21
1-hour treated/untreated OD600-ratio (S. suis ST6; 130 μg/ml): 0.06
1-hour treated/untreated OD600-ratio (S. suis ST7; 6.5 μg/ml): 0.65
1-hour treated/untreated OD600-ratio (S. suis ST7; 13 μg/ml): 0.47
1-hour treated/untreated OD600-ratio (S. suis ST7; 30 μg/ml): 0.34
1-hour treated/untreated OD600-ratio (S. suis ST7; 65 μg/ml): 0.22
1-hour treated/untreated OD600-ratio (S. suis ST7; 130 μg/ml): 0.11
1-hour treated/untreated OD600-ratio (S. suis ST9; 6.5 μg/ml): 0.50
1-hour treated/untreated OD600-ratio (S. suis ST9; 13 μg/ml): 0.30
1-hour treated/untreated OD600-ratio (S. suis ST9; 30 μg/ml): 0.23
1-hour treated/untreated OD600-ratio (S. suis ST9; 65 μg/ml): 0.13
1-hour treated/untreated OD600-ratio (S. suis ST9; 130 μg/ml): 0.05
1-hour treated/untreated OD600-ratio (S. oralis 35037; 6.5 μg/ml): 0.30
1-hour treated/untreated OD600-ratio (S. oralis 35037; 13 μg/ml): 0.13
1-hour treated/untreated OD600-ratio (S. oralis 35037; 30 μg/ml): 0.08
1-hour treated/untreated OD600-ratio (S. oralis 35037; 65 μg/ml): 0.07
1-hour treated/untreated OD600-ratio (S. oralis 35037; 130 μg/ml): 0.04
1-hour treated/untreated OD600-ratio (S. agalactiae type II; 6.5 μg/ml): 0.61
1-hour treated/untreated OD600-ratio (S. agalactiae type II; 13 μg/ml): 0.21
1-hour treated/untreated OD600-ratio (S. agalactiae type II; 30 μg/ml): 0.11
1-hour treated/untreated OD600-ratio (S. agalactiae type II; 65 μg/ml): 0.08
1-hour treated/untreated OD600-ratio (S. agalactiae type II; 130 μg/ml): 0.04
1-hour treated/untreated OD600-ratio (S. dysgalactiae GGS; 6.5 μg/ml): 0.30
1-hour treated/untreated OD600-ratio (S. dysgalactiae GGS; 13 μg/ml): 0.27
1-hour treated/untreated OD600-ratio (S. dysgalactiae GGS; 30 μg/ml): 0.15
1-hour treated/untreated OD600-ratio (S. dysgalactiae GGS; 65 μg/ml): 0.11
1-hour treated/untreated OD600-ratio (S. dysgalactiae GGS; 130 μg/ml): 0.14
1-hour treated/untreated OD600-ratio (S. sanguinis 10556; 6.5 μg/ml): 0.48
1-hour treated/untreated OD600-ratio (S. sanguinis 10556; 13 μg/ml): 0.44
1-hour treated/untreated OD600-ratio (S. sanguinis 10556; 30 μg/ml): 0.28
1-hour treated/untreated OD600-ratio (S. sanguinis 10556; 65 μg/ml): 0.21
1-hour treated/untreated OD600-ratio (S. sanguinis 10556; 130 μg/ml): 0.11
1-hour treated/untreated OD600-ratio (S. sobrinus 6715; 6.5 μg/ml): 0.64
1-hour treated/untreated OD600-ratio (S. sobrinus 6715; 13 μg/ml): 0.48
1-hour treated/untreated OD600-ratio (S. sobrinus 6715; 30 μg/ml): 0.39
1-hour treated/untreated OD600-ratio (S. sobrinus 6715; 65 μg/ml): 0.32
1-hour treated/untreated OD600-ratio (S. sobrinus 6715; 130 μg/ml): 0.23
1-hour treated/untreated OD600-ratio (E. faecalis V583; 6.5 μg/ml): 0.98
1-hour treated/untreated OD600-ratio (E. faecalis V583; 13 μg/ml): 0.93
1-hour treated/untreated OD600-ratio (E. faecalis V583; 30 μg/ml): 0.84
1-hour treated/untreated OD600-ratio (E. faecalis V583; 65 μg/ml): 0.71
1-hour treated/untreated OD600-ratio (E. faecalis V583; 130 μg/ml): 0.52
1-hour treated/untreated OD600-ratio (B. anthracis ΔSterne; 6.5 μg/ml): 1.02
1-hour treated/untreated OD600-ratio (B. anthracis ΔSterne; 30 μg/ml): 1.02
1-hour treated/untreated OD600-ratio (B. anthracis ΔSterne; 65 μg/ml): 0.98
1-hour treated/untreated OD600-ratio (B. anthracis ΔSterne; 130 μg/ml): 0.90

From patent US20140179594A1, “STREPTOCOCCUS BACTERIOPHAGE LYSINS FOR TREATMENT OF GRAM POSITIVE BACTERIA IN COMPANION ANIMALS AND LIVESTOCK” (priority 2011, published 2014)
